Results published in the DeepSol protein solubility set.

Test: soluble on expression in E. coli; label from the status in PepcDB or PDB records

| Sequence | soluble on expression in E. coli |
| --- | --- |
| GPGSMSSSAPLSTQQPAPLPLQRQQQQQSTQSMLDAIRQQGWGSASSGGGDAMPSDASSRGMEGHSGAKLACPQMHEGHSAISSRPFNSEGADKPFAAVAATREASEAAKNSYDSMQPSADSQQLRGAEGECALPGHANAAAAAATLRNTNGVCEAIVTAARYGRSMEPSASVPAVTATAALVNVVAEEKERRRLSGPFGSYSTTDEVFHQKCNDVQRGSAIESADSRTDASGGALVVSPAYAAVPARVSEAPSPVDAEMQQLLADARRAYTAAEERLLSDGLALREDWMGTRDLFFAAGSLFAAVGEAADAARCLLHATFINRAFQNDSEAMVTLAMSVEQLKQSHPRIAVDSLLRLAPCYAQQDLRYQAARCHRDAAEILENILEAKEEAVVQYRAALDMYAETKVAAAETARRWERQQQQQRTAAIWGDLTGTPPLPPSAGASATNGDLTSPTAPGGVEATSLGSEQPFVSPKSTAPVPSSGGDSLTSSVNGQKPHSLEFPAHGPPQYRVSTTVQRSLADSCRWRLMILLTLLGRYDEAREAALDCAANVPRTLPKTKYLLYATLCVLARGASVKTDSTANSVSDPAAAAEAAQAPETPTTPFTAAAADTVYFDSLYDTEKFFLGLQDEDRTFQRGKENALVRALLAANRACSLTAFDEAVRAYKEYSTTEPCAAFELLAGECRRSLFEHMERFA | not soluble |
| MEFKLLQTFIEVVRQGSFSKAAENLFTTQSTVSKAIKQLEEELGITLIERFKKRNVPTTAGEIVYQRGTKLLADRDDLLKELDEIRGLKQGRLRLGISPVGSSTLFAPLFVLYRQRYPGIEVELVEHGSDKLAECLRAGEIDFAGTLLPISEEFDCQLVRSEPLVALLASGHPLATKHCISLPELKEIPFILFGSGFALHRIILDACRHAGFEPKVVAQSSQIDFMLELVAAGLGVTFLPRMIATQRHTTQIRSLLLNGSEFQWNMAMTWRRNSYLSEAAQAWLALVREVHVDN | not soluble |
| MGSDKIHHHHHHMTEITTLSQFLTTANTQFQVYDLGRRVQHIDALAFHQIESLLAPYPYPIQGHAQLGLVFWQQSAQPYIWFLKLPLDEQGLLSPAPRSQFIQMILDALGRDLTQELTEAQQEQFANHPFSFKPNQHKLALFNALVRQQLGQPASSQYEFAAQYLSEQAVIGESSAVENESHSWEQLGLQGIADVCVRAQSLDNMDSLIRSFDFSPLPVHAALCQCLEHLPLEPSLAEKIYLLFEQASNEHKASYLAALASSPSLSIKAIAHLAQHNLLDANHLVTIAARNWQALKDDSCRKSYLEALALQEQGFFNQVFADIVAIPSLRQALLLDLRNPERSNILSIAIGGLFKAAQS | not soluble |
| MGSDKIHHHHHHMFRHFRSRFGTPAWAGVNEDDFLLVRSWFGHGRHHGRDRDKHFGNEMFGRGWGDEHRTRRGDIKFILLELLSEHPSHGYDLIKEMETRYGGFRRLSPGSVYPTLQLLEEGGYLKSAQEGGKRIYTITDEGRKLLAERAQQETSDTPWDTVKSFVTGKPQEFIELRNAATELAAVVVQVARSGNVERINRVRELLEQVKREIYTILAEK | not soluble |
| GAMGMQQGQMAYDRAITVFSPDGRLFQVEYAREAVKKGSTALGMKFANGVLLISDKKVRSRLIEQNSIEKIQLIDDYVAAVTSGLVADARVLVDFARISAQQEKVTYGSLVNIENLVKRVADQMQQYTQYGGVRPYGVSLIFAGIDQIGPRLFDCDPAGTINEYKATAIGSGKDAVVSFLEREYKENLPEKEAVTLGIKALKSSLEEGEELKAPEIASITVGNKYRIYDQEEVKKFL | soluble |
| MADSQTSSNRAGEFSIPPNTDFRAIFFANAAEQQHIKLFIGDSQEPAAYHKLTTRDGPREATLNSGNGKIRFEVSVNGKPSATDARLAPINGKKSDGSPFTVNFGIVVSEDGHDSDYNDGIVVLQWPIG | soluble |
| MSLTTVRMTIPDDFILGAAASAWQTEGWSGKKPGQDSWPDLWYKNDRHVWHNGYGPAVATDFINRFQEDVQLMKLAGLTHYRTSINWSRFLTDYENVTVDEEYAAYYDQLFDALLANGITPMICLEHYELPGYLLEKYGGWGSKTVVELFVRYAEKVFARYHPKVTRWFTFNEPIVVQTRVYLDALRWPYEQNTSTWMQWNYHKVLATASVVKRFRELGYPGTIGCILNPEVTYPRSRAPHDLRAAEIYDLFYNRMFLDPLVHGVWPPELLALLEQHQVTWETSEEDLAVIREHTVDELGINLYYPHRVKAPSRAWHPHTPFHPAWYYEPFELPGRRMNASRGWEIYPQIIFDMAMRIKNDYRNIPWFVAESGMGVENEGQFRNREGVIDDSYRIRFISEHLWHTLRAREAGANCQGYMLWAFTDNVSPMNAFKNRYGLIEIDLQNHRARRAKASAHWFRQLGERRELVLDEGHHHHHH | soluble |
| MKLPISTISPIHYIKSVVSSRETRSESNKSRRTFANTEWNKIIRETLYLETIYIPLDATSHSPDIIFQLQSPVEPKVLTVGVACKGRWKSEGIGWSDIIDEAKKFLDPLYDQVLSSAMDYHHCMLIIVSTKLSLNVSNELGN | not soluble |
| MRVAVDAMGGDNAPAVEVEGAVVAAREFGIPITLVGDTEKLRLELAKHNVQGLDIAIHHASEVVGMHDAASDAVRRKKDSSIRVAFDLVKSGEAEAVVSAGNSGATMAAGMFVLKRLKGIDRPAIAQIFPTLRGKTLVLDVGGNVDCKPIHLVQFAIMGEVYARHVIGVEQPRIGLLSNGEEDSKGNELTRETNAILKNISFDYEGYVEGRDIFNGMVDVVVCDGFVGNVVLKLSEGLAETVGKMLREEIASSLLSKLGYLFVRKAFKNFKKKVDYAEYGGAPLIGINGVAMICHGGSNVKAIKNAIHFAHEYVRKGVNQRLAEKMETEFTAYMQQFDAVKEAVAG | not soluble |
| MYRAWDPSLTTIDSFLVNELLLHAHPTKTPPEVTEGQTPSSSSSSSTDSGRETMLEEEEAACCDLDSELARIGDENTAEIRELCLPLEIDSRCNLCAIVSICLRRDPQQKWLLDYCFLCHKCAAAPRTAMATLIVATEFLHLMKLHFRDIAFDNIFKERIVTIFDFHAHFFINRCYTQRDEHPVMVENITLAHMAVTRALLTDDDAVPYTKRRKIQYKLPKKPAPAEPEELRLLDKYRRATEGSFARVLFYIWSGTNVMFNTTLTDLAIKKSKALKALKTRQSEIEPSVGPVFLSPIPTFRLRNATTTVCLLCELMACSYRDNVFLQQLRERITNYSRNNLKIIDRTQLTMAEILSHGRNSEFPQQLKNKDVSIYVTSSPETLAAASRPGTEEPFELSALTYLVLRQVGVIGVYKHLFADPLCAANMRSTDPNILFFDVPNEYLNEAKLAICSTNAYPSRVERDFWLYAHMFKAFQIIKRNFKTKTQLSDFLRDFSQVLESHDFSLVDPSFTVEKYV | not soluble |
| MGSDKIHHHHHHMKILVGSPVSLEEFETIDLFISWLDVIPDNARFSIVGTSKFFIIGKNGREWKKGYEFGIVDADINIFVVGGDLALYPEVFYIAKENGAKLVVGFCEIQNFIDFNFVKAKFWAHTQETSLASIVLLNFLGKVHNNIYFPLEKTKNQTGVVAEGVAPVFLELKKNFFSSEEAEDV | not soluble |
| NSAAIWGEGDVSALQSDTESGAYIEESSMVAADPLADYLSKPKLEALIASTKKQMLAAAKELDFLEAARLRDEAARLEKKLEQLTA | not soluble |
| MFTGFGAASFSAPAKAAAQTNTLSENTNQSAAELVKNLYNTAYKGEMPQQAQGLTINKSTKGDVHAAFGEPERPVGGDNRFDLYHWNMGQPGYGFSYHKDMTISEIRYFGTGVERQLNLGGVTPEVLQKQLGPVNRVLTVPFTDEIDYVYDTGRYELHFVIGTDQTADHVNLKAKLEHHHHHH | soluble |
| MANMTFSLPDPMKDWIESRIQKGEYASASDYVRDLVRRDWARRGQDFSIDELRQIVAESRASGVGSRSMDDLFAEAERVATAHGVMRE | not soluble |
| MSLVRNMTIASELGYLHVPEGVLIDLKKVDSLRDDEIVLMCTGSQGEPMAALSRMANGDHKVQVGHGDTVILASSLIPGNENAVFRIINGLTRLGARVVHGGNAKVHVSGHASAGELLYCYNVLKPKNVMPVHGEVRHLVANGALAVRTGVPADRVVLAEDGVVVDLVDGRASVVGAVPCGYVYVDGSSVGEITDAELKDRRILGEEGFVSVFAVVDSATGKVLAGPQILARGFAEDDKVFQDIQPEVVKALEDAIAGGATDTHQLQQVMRRVIGRWVSNRLRRRPMIVPVVVEAEGHHHHHH | soluble |
| MIQKGLEGVKICESSICYLDGINGRLYYRGIPVEELAEKSTFEETAYFLWYGKLPTKSELEEFKRKMADYRELPAEALGILYHLPKNLHYIDVLKIFLSIHGSMDGNDEDLREKAIRVASVFPTILAYYYRYSKGKELIRPRKDLSHVENFYYMMFGERNEKIRLLESAFILLMEQDINASTFAALVIASTLSDLYSCIVGALGALKGPLHGGASEKVPPMLEEIGSEDRVEEFVQKCLKEKRKIMGFGHRVYKTYDPRAVFLKRVLQEHFPDSKLFRIASKLEEYIVSNKIKNIYPNVDLYSSVLFEELGFPRNMFTALFATARVVGWTAHVIEYVSDNKLIRPTSEYVGPMDVEYIPIERRDENG | soluble |
| SKSRRWVFALRHGERVDLTYGPWVPHCFENDTYVRKDLNLPLKLAHRAGGKGGYVKDTPLTRLGWFQAQLVGEGMRMAGVSIKHVYASPALRCVETAQGFLDGLRADPSVKIKVEPGLFEFKNWHMPKGIDFMTPIELCKAGLNVDMTYKPYVEMDASAETMDEFFKRGEVAMQAAVNDTEKDGGNVIFIGHAITLDQMVGALHRLRDDMEDVQPYEIGRNLLKVPYCALGAMRGKPWDVVSPPCPPSINSSSGRFDWRILIK | soluble |
| MGHHHHHHSHMVVVAAAPNPADGTPKVLLLSGQPASAAGAPAGQALPLMVPAQRGASPEAASGGLPQARKRQRLTHLSPEEKALRRKLKNRVAAQTARDRKKARMSELEQQVVDLEEENQKLLLENQLLREKTHGLVVENQELRQRLGMDALVAEEEAEAKGNEVRPVAGSAESAALRLRAPLQQVQAQLSPLQNISPWILAVLTLQIQSLISCWAFWTTWTQSCSSNALPQSLPAWRSSQRSTQKDPVPYQPPFLCQWGRHQPSWKPLMN | not soluble |
| KHHHHHHIKPGALCVIDTPEGKGTGFFSGNDIVTAAHVVGNNTFVNVCYEGLMYEAKVRYMPEKDIAFITCPGDLHPTARLKLSKNPDYSCVTVMAYVNEDLVVSTAAAMVYGNTLSYAVRTQDGMSGAPVCDKYCRVLAVHQTNTGYTGGAVIIDPTDFHPV | soluble |
| MNKQLLSCSLKSGKQVTMVVASVATDGVDQQVEISYYDQKVIGNGSFGVVFLAKLSTTNEMVAIKKVLQDKRFKNRELQIMRKLNHPNIVKLKYFFYSSGEKKDELYLNLILEYVPETVYRVARHYSKQRQQIPMIYVKLYMYQLLRSLAYIHSIGICHRDIKPQNLLIDPESGVLKLCDFGSAKYLVRNEPNVSYICSRYYRAPELIFGATNYTNSIDVWSAGTVMAELLLGQPIFPGDSGVDQLVEIIKVLGTPTREQIQSMNPNYKEFKFPQIKAHPWNKVFRVHTPAEAIDLISKIIEYTPTSRPTPQAACQHAFFDELRNPDARLPSGRPLPTLEMDGPMGTGEVSTTSGDVAGPSA | not soluble |
| MGSDKIHHHHHHMNTIGERLKYLRKLNNLTQKQVAEKTGVQRGNISHYEKNDFLPSRVALISFANFFKTNYDWIVYGKGAIPKSIDEVMYAKSNSIAECNNGAAVDFSKRLIFTMKYFHETIDGLCLKLNISKDIFHEILIKKNVSAFDLFKICNYFNVSMDWMFNGNITYLKSDAKLQQAYLMNSKGNKPLSYDNHGMVQCTCEEKKLLIFFENLNTKDKSLVIDILNSVNNQASMDIQKLIK | not soluble |
